Variants at the floor of the assay were thinned out.
What was measured:
biotinyl-Phe-oxazolone = test: self-aminoacylation, catalytic enhancement (BFO) (fold over background); higher = more active; k-Seq, kA / k0A0; sequences stand for … in GGGAAUGGAUCCACAUCUACGAAUUC…UUCACUGCAGACUUGACGAAGCUG
In short: (§1)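 The uncatalyzed rate is the low-activity peak of a bimodal Gaussian fit, and catalytic enhancement is median kA divided by it. The kA values came from pseudo-first-order fits, with 1000 bootstraps, of per-sequence fraction reacted measured by streptavidin capture, triplicate qPCR and Illumina sequencing. Mutagenized RNA pools with a 21-nt variable region (0.43 μM) were reacted with each biotinyl-aminoacyl-oxazolone at 2–1250 μM in 50 μL HEPES/NaCl/KCl/MgCl2/CaCl2 buffer with 5% acetonitrile, pH 6.9–7.0, for 90 minutes at room temperature.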

biotinyl-Met-oxazolone = test: self-aminoacylation, catalytic enhancement (BMO) (fold over background); higher = more active; k-Seq, kA / k0A0; sequences stand for … in GGGAAUGGAUCCACAUCUACGAAUUC…UUCACUGCAGACUUGACGAAGCUG
In short: as §1

biotinyl-Trp-oxazolone = test: self-aminoacylation, catalytic enhancement (BWO) (fold over background); higher = more active; k-Seq, kA / k0A0; sequences stand for … in GGGAAUGGAUCCACAUCUACGAAUUC…UUCACUGCAGACUUGACGAAGCUG
In short: as §1

biotinyl-Ile-oxazolone = test: self-aminoacylation, catalytic enhancement (BIO) (fold over background); higher = more active; k-Seq, kA / k0A0; sequences stand for … in GGGAAUGGAUCCACAUCUACGAAUUC…UUCACUGCAGACUUGACGAAGCUG
In short: as §1

biotinyl-Leu-oxazolone = test: self-aminoacylation, catalytic enhancement (BLO) (fold over background); higher = more active; k-Seq, kA / k0A0; sequences stand for … in GGGAAUGGAUCCACAUCUACGAAUUC…UUCACUGCAGACUUGACGAAGCUG
In short: as §1

biotinyl-Val-oxazolone = test: self-aminoacylation, catalytic enhancement (BVO) (fold over background); higher = more active; k-Seq, kA / k0A0; sequences stand for … in GGGAAUGGAUCCACAUCUACGAAUUC…UUCACUGCAGACUUGACGAAGCUG
In short: as §1

Sequence | self-aminoacylation (biotinyl-Phe-oxazolone) | self-aminoacylation (biotinyl-Met-oxazolone) | self-aminoacylation (biotinyl-Trp-oxazolone) | self-aminoacylation (biotinyl-Ile-oxazolone) | self-aminoacylation (biotinyl-Leu-oxazolone) | self-aminoacylation (biotinyl-Val-oxazolone)
AUACACCUAGGGCAUCGGGUG [Fam2.2 aminoacylation ribozyme variant] | 17.1 | 2.83 | 4.14 | 2.99 | 3.71 | 2.43
AAGUUUGCUGAUAGUCGCAAA [Fam3.1 aminoacylation ribozyme variant] | 3.33 | 1.38 | 1.19 | 1.71 | 1.6 | 1.55
CUUACGCUGGUCAUCGAGUGA [Fam2.1 aminoacylation ribozyme variant] | 7.86 | 3.06 | 3.35 | 2.13 | 3.03 | 2.61
AAUAACCUGGUCAUCGAGUGA [Fam2.1 aminoacylation ribozyme variant] | 9.51 | 5.9 | 7.36 | 3.67 | 5.79 | 3.55
AUUCACAUAGAUCAUCGGGUG [Fam2.2 aminoacylation ribozyme variant] | 35.2 | 4.43 | 3.84 | 2.93 | 5.04 | 2.8
UUACACUUCAAGCAAUCGGUC [Fam1B.1 aminoacylation ribozyme variant] | 30.4 | 1.26 | 15.7 | 1.25 | 1.5 | 1.14
GUUACCCUGGUCAUCGAGUAA [Fam2.1 aminoacylation ribozyme variant] | 93.6 | 22.6 | 18.7 | 6.86 | 21.8 | 7.98
UUACUUUAAACAAUCGGUCUG [Fam1A.1 aminoacylation ribozyme variant] | 1.4 | 1.38 | 1.25 | 1.11 | 0.878 | 1.11
CCACACUUGAAGCAAUCGGUA [Fam1B.1 aminoacylation ribozyme variant] | 0.696 | 0.976 | 0.948 | 1.07 | 1.13 | 1.25
UUACUUCAAACAAUCUGUCUG [Fam1A.1 aminoacylation ribozyme variant] | 3.15 | 1.42 | 2.09 | 1.45 | 1.38 | 1.35
CCACACUUCAAGCCAUCGGCC [Fam1B.1 aminoacylation ribozyme variant] | 5.27 | 3.33 | 4.97 | 2.98 | 2.85 | 5
AUUACCCAGGUCAUCGCGUGA [Fam2.1 aminoacylation ribozyme variant] | 156 | 20.3 | 19.3 | 8.22 | 22.9 | 10.3
CUACGCUUCAAGCAAUCGGUC [Fam1B.1 aminoacylation ribozyme variant] | 59.9 | 1.14 | 29.9 | 0.964 | 1.86 | 1.06
CUACUUCAACCAAUCGGUCUC [Fam1A.1 aminoacylation ribozyme variant] | 23.8 | 0.76 | 12.9 | 0.904 | 1.19 | 0.98
UUGCUUCAAACAAUCGGUCUG [Fam1A.1 aminoacylation ribozyme variant] | 147 | 2.25 | 53.4 | 2.12 | 3.55 | 1.91
CCACACUUCACGCGAUCGGUC [Fam1B.1 aminoacylation ribozyme variant] | 6.79 | 1.48 | 2.37 | 1.46 | 1.84 | 2.17
AUCGACCUAGGUCAUCGGGUG [Fam2.2 aminoacylation ribozyme variant] | 8.6 | 5.83 | 6.33 | 4.48 | 6.35 | 4.44
AUUCACCUAGGUGAUCGGGGG [Fam2.2 aminoacylation ribozyme variant] | 21.6 | 4.53 | 7.47 | 5.84 | 5.33 | 4.72
AUUCACCUAGGUCACCGUGUG [Fam2.2 aminoacylation ribozyme variant] | 4.55 | 1.33 | 1.24 | 1.13 | 1.48 | 1.33
AUUCACCUAAGUCAACGGGUG [Fam2.2 aminoacylation ribozyme variant] | 28 | 3.57 | 3.21 | 2.58 | 4.67 | 2.43
CCACGCUUCAAGCAAUCGGUC [Fam1B.1 aminoacylation ribozyme variant] | 76.9 | 1.37 | 39.9 | 1.2 | 2.11 | 1.54

Sequence | self-aminoacylation (biotinyl-Phe-oxazolone) | self-aminoacylation (biotinyl-Met-oxazolone) | self-aminoacylation (biotinyl-Trp-oxazolone) | self-aminoacylation (biotinyl-Ile-oxazolone) | self-aminoacylation (biotinyl-Leu-oxazolone) | self-aminoacylation (biotinyl-Val-oxazolone)
AUUCUCCUAGGUCAUCGGGUA [Fam2.2 aminoacylation ribozyme variant] | 29.6 | 7.07 | 7.31 | 4.71 | 8.96 | 4.84
AUUACCCGGGUCAUUGAGUGA [Fam2.1 aminoacylation ribozyme variant] | 56.8 | 9.41 | 10.8 | 4.35 | 8.98 | 4.83
CUACUUCAAACAUUAGGUCUG [Fam1A.1 aminoacylation ribozyme variant] | 0.696 | 0.617 | 0.535 | 0.813 | 0.6 | 0.747
CCACACUUCAGGCAAUCGUUC [Fam1B.1 aminoacylation ribozyme variant] | 0.772 | 0.618 | 0.422 | 0.704 | 0.585 | 0.792
CUACUUCAAACAAUAGGUCUC [Fam1A.1 aminoacylation ribozyme variant] | 1.03 | 0.535 | 0.459 | 0.666 | 0.493 | 0.657
CCACACUUCAAGCAAUUGGCC [Fam1B.1 aminoacylation ribozyme variant] | 2.34 | 2.58 | 3.51 | 2.77 | 3.18 | 4.13
AUUCACCUAUAUCAUCGGGUG [Fam2.2 aminoacylation ribozyme variant] | 32.7 | 4.73 | 4.4 | 2.84 | 6.53 | 2.56
AUUACCCUGGUCAAGGAGUGA [Fam2.1 aminoacylation ribozyme variant] | 3.96 | 3.47 | 3.32 | 1.94 | 2.87 | 2.04
AUUCACCUAGGACAUUGGGUG [Fam2.2 aminoacylation ribozyme variant] | 25.8 | 3.42 | 2.79 | 2.24 | 4 | 2.28
CGACACUUCAAACAAUCGGUC [Fam1B.1 aminoacylation ribozyme variant] | 22.9 | 1.31 | 12.5 | 1.23 | 1.71 | 1.64
AUAACCCUGGUCAUCCAGUGA [Fam2.1 aminoacylation ribozyme variant] | 22.8 | 5.52 | 6.17 | 3.62 | 6.28 | 3.21
GUUACCCUGGUCAUCGAGUGC [Fam2.1 aminoacylation ribozyme variant] | 33.8 | 12.9 | 9.64 | 4.28 | 13 | 4.94
CUUCACGUAGGUCAUCGGGUG [Fam2.2 aminoacylation ribozyme variant] | 36.6 | 4.38 | 4.63 | 3.59 | 4.22 | 4.16
AUUACCCUGGUCAUCGGUUGA [Fam2.1 aminoacylation ribozyme variant] | 6.78 | 2 | 3.08 | 1.62 | 1.94 | 1.34
AUUUACCUAGGUCAUAGGGUG [Fam2.2 aminoacylation ribozyme variant] | 1.34 | 1.58 | 1.97 | 1.37 | 1.87 | 1.48
AAGUUUGAUGAUAGUCGCAAG [Fam3.1 aminoacylation ribozyme variant] | 2.4 | 1.49 | 1.4 | 1.78 | 1.63 | 1.49
AUACACCUUGGUCAUCGGGUG [Fam2.2 aminoacylation ribozyme variant] | 19.9 | 3.63 | 4.4 | 3.47 | 4.72 | 2.89
CCUCACUUCAAGCAGUCGGUC [Fam1B.1 aminoacylation ribozyme variant] | 1.1 | 0.646 | 0.928 | 0.786 | 0.892 | 0.855
AUUCUCUUAGGUCAUCGGGUG [Fam2.2 aminoacylation ribozyme variant] | 77.6 | 9.08 | 9.36 | 5.7 | 12.5 | 5.53
AUUCACCUACGUGAUCGGGUG [Fam2.2 aminoacylation ribozyme variant] | 20.2 | 2.81 | 3.44 | 2.19 | 3.64 | 2
AUUACCCUGGUUAACGAGUGA [Fam2.1 aminoacylation ribozyme variant] | 106 | 14.1 | 17.3 | 5.85 | 14.4 | 6.35

— the supplement of paper PMC9233669
